Experimental data reported in the supplement of paper PMC9170038.

Test system: MS2 coat protein
Assay: apparent KD of MS2 coat protein; higher = weaker reporter binding
Details: Eterna round: R107
In short: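 Apparent KD per design is the median of normalised cluster binding-curve fits. Designed RNA switches transcribed on-chip from Illumina sequencing clusters were titrated with SNAP-549-labelled MS2 coat protein in twofold steps from 0.7 or 1.5 nM to 3 µM, with 0.8–1.5 h down to 10–20 min per step. Buffer: 100 mM Tris-HCl pH 7.5, 80 mM KCl, 4 mM MgCl2, without or with constant ligand.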

[1] = input ligand: theophylline 20 uM
[2] = input ligand: theophylline 2 mM
[3] = input ligand: tryptophan 2.4 mM

Sequence	apparent KD of MS2 coat protein (input ligand: arginine 13.2 mM) [nM]	apparent KD of MS2 coat protein (input ligand: none) [nM]	apparent KD of MS2 coat protein [1] [nM]	apparent KD of MS2 coat protein [2] [nM]	apparent KD of MS2 coat protein [3] [nM]
UCGGACAUGAGGAUCACCCAUGUAAAUCCUCGAGGACCGGUACGGCCGCCACUCGAACGAGUGGCGCGCGAGUGCGCACUCGCGC [aFa]	22.2	33.2	57.9	35.8	26.6
UCGGGCAUGGCGGCCGCCACUGGUUGGCGUGCGGAUGAGGGAACAUGAGGAUCACCCAUGUUGGUUAGGACCGGGCUUGCGUCGU [knkmullin]	11.8	16.5	18	15.2	13.4
UCGUGUAUAACGGAUACCAGUGAGAAGGAUACAUGAGGAUCACCCAUGUGAGUUGAUCCACACCCUUGGCAGCUGUAUAUAUCUA [alamullin]	103		468		290
UCGUGUAUAUCGGAUACCAGUGAGAAGGAUACAUGAGGAUCACCCAUGUGAGUUGAUGUACACCCUUGGCAGCUGUAUAUAUCUA [.plullin]	36		62.7		47.9
UCGUUUGAGGCGGCCGCCACUGGUCUCAUGGUCAACAUGAGGAUCACCCAUGUAUCUUUGCUAAGCAGGACCGGGCCUCGAGCGA [#19 Exclusion Tryptophan B]	43.5		87.4	87.5	
UGAAAGUAGGGAAGGAGCGCUACAACAUGAGGAUCACCCAUGUUAUGAGGAUCACCCGUGUGGCAGGUAGGUCGCCCAAAACAUG [#13 Same State - Arginine B]	40.6	43.9	46.7	35.6	31.9
UGACAGAUAACCGCUGGUGCUCUCGAGUUGCGAGGACCGGUACGGCCGCCACUCGACAACAUGAGGAUCACCCAUGUUGCGGGUC [Lareara]	30.7		108	156	
UGACAUUGCUCAGAUACCAGACAUGAGGAUCACCCAUGUGCCAAACGUACAAUAAUAAAUGUCCCUUGGCAGCUGAGCAAUGUCU [TheoBX 14 #MS2Left #Theo2]	13.4		17.3		11.6
UGACAUUGCUGCGAUACCAGACAUGAGGAUCACCCAUGUACCAAGGUACGAAAAUAACAUGUCCCUUGGCAGCGCAGCAAUGUCU [MAT - Exclusion Theophlline B - Mod of Eli - D4]	12.6		25.7		12.1
UGACGAGGCCUGGAUACCAGCGACAUGAGGAUCACCCAUGUAUGAGGAUCAGCCAUGUUAUGCCCUUGGCAGCCACGAAGGUCAG [WQQMULLIN]	21.6	25.4	38.2	220	22.9
UGAGUUAGACAAAAGUCUAGCUCUGGUGAAGGAGCGUCCGAAAGGACAGGUAGGUCGCACCACCUGAGGAUCACCCGGGUUCCUA [ArgAS 13 #OpenEnded #AlternativeMS2]	360	167	544	991	115
UGAUACCAGUCGGCCGCCACUACAUGAGGAUCACCCAUGUAUGGGUCAAUGCUAGAUACUAGCAGUAGGACCGGGACUGGUAUCU	11.4		14.8	13.2	
UGAUCCUACAGAGAUACCAGUGCCACUGAGUGACCAGACACAUGAGGAUCACCCAUGUAACACCCUUGGCAGCUCAACUAGAGGG [Same State Theophylline B GF18]	16.8		22.3		19.7
UGCAUGAUCUGAAGGAGCGUGUAUGAUGAUAACAUGAGGAUCACCCAUGUCGAGACGGUAACACAGGUAGGUCGCAGAUCAUGCU [Arg B SS t4]	21.4	23.2	31.7	28.3	24.7
UGGCGAGAAGGAAGGAGCGUCAGCUGAGUCACAUGAGGAUCACCCAUGUAGGACAUGGUGUGACAGGUAGGUCGCCUUCUGCCCU [SS-ArgB18]	16.9	14.6	25.7	22.5	13
UGGGUACAUGAGGAUCACCCAUGUACUGAAGGAGCGAGAAAUAACUCAGGUAGGUCGCAGACAUGAGGAUCACCCAUGUAAUAAA [Exclusion Arginine A GF 10]	16	18	23.4	22.5	18
UGGUAGGUAGGAAGGAGCGCAUACUUCACAUGAGGAUCACCCAUGUCGAGACGUGAGUCAGUGCAGGUAGGUCGCCUAGUUAUGA [Same State - Arginine B (Freestyle 23)]	30.4	36.4	36.1	37.6	30.3
UGUAACAUGAGGAUCACCCAUGUGAGUGAUACCAGAUUAGUAUUAGUCCCUUGGCAGCACAUUGGGCGAGUGUAUAGUCUAUGCG [Same State - Theophylline A (Freestyle 12)]	106		197		135
UGUAUAUACGGAAGGAGCGUGUAAGAUUAAGAACAUGAGGAUCACCCAUGUUUUAAGGGAACACAGGUAGGUCGCCGUAUAUAUG [11.O]	9.29	12.4	14.1	11.7	10.3
